Here are results for twelve variants from the supplement of paper PMC7125110.

± gives the standard error. Fewer inactive variants are shown than the library holds. Some results are limits rather than exact numbers.

First the molecules themselves.
B1: glmS ribozyme (parent)
chain: AUAAAAGCGCCAGAACUACAGAAAUGUAGUUGACGAGGAGGAGGUUUAUCGAAUUUUCGGCGGAUGCCUCCAAA

Common to all, as to conditions: with glucosamine-6-phosphate
Variants of B1 are the subject of series [1]. The series is described as follows: self-cleavage kobs at 40 uM GlcN6P; higher = faster cleavage; RNA array. An outline of the steps:
(§1)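 Barcoded ribozyme variants, transcribed in situ by E. coli RNA polymerase on sequenced MiSeq chips, were followed via a hybridised Cy3 probe at 37 °C. Glucosamine-6-phosphate ranged from 40 μM to 10 mM in HEPES/KCl/Mg(OAc)2 buffer. kobs came from decay fits to per-tile medians, and kcat and KM from weighted Michaelis–Menten fits.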

Variants of B1 are the subject of series [2]. The series is described as follows: self-cleavage kobs at 2500 uM GlcN6P; higher = faster cleavage; RNA array. Summed up:
as §1

In series [3] the parent is B1. The experiment in a line: self-cleavage kobs at 160 uM GlcN6P; higher = faster cleavage; RNA array. An outline of the steps: as §1
Series [4] covers variants of B1. The experiment in a line: self-cleavage kobs at 640 uM GlcN6P; higher = faster cleavage; RNA array. Summed up:
as §1

The variants in series [5] derive from B1. The series is described as follows: self-cleavage kobs at 10000 uM GlcN6P; higher = faster cleavage; RNA array. An outline of the steps: as §1

Consider AUAAAAGUGCCAGAACUACAGAAAUGUAAUUGACGAGGAGGAGGUUUAUCGAAUUUUCGGCGGAUGCCUCCAAA, for which, in the series with glucosamine-6-phosphate [1], the “self-cleavage kobs at 40 uM GlcN6P” value is less than 1e-05 s⁻¹. In addition, the “self-cleavage kobs at 2500 uM GlcN6P” value with glucosamine-6-phosphate [2] was less than 1e-05 s⁻¹.

With AUAAAAGCGCCAAAACUACAGAAAUGUAGUUGACAAGGAGGAGGUUUAUCGAAUUUUCGGCGGAUGCCUCCAAA, the “self-cleavage kobs at 40 uM GlcN6P” value with glucosamine-6-phosphate [1] is less than 1e-05 s⁻¹. Further, the “self-cleavage kobs at 160 uM GlcN6P” value with glucosamine-6-phosphate [3] was less than 1e-05 s⁻¹. The “self-cleavage kobs at 640 uM GlcN6P” value with glucosamine-6-phosphate [4] was less than 1e-05 s⁻¹. In addition, in the series with glucosamine-6-phosphate [2], the “self-cleavage kobs at 2500 uM GlcN6P” value was less than 1e-05 s⁻¹.

On to AUAAAAGCGCCAUAACUACAGAAAUGUAGUUGACGUGGAGGAGGUUUAUUGAAUUUUCGGCGGAUGCCUUCAAA, for which, in the series with glucosamine-6-phosphate [1], the “self-cleavage kobs at 40 uM GlcN6P” value came to 7.67e-05 ± 2.7e-05 s⁻¹.

On to AUAAAAGGGCCAGAACUACAGAAAUGUAGUUGACGAGGAGGAGGUUUAUUGAAUUUUCGGCGGAUGCCUCCAAA, for which, in the series with glucosamine-6-phosphate [1], the “self-cleavage kobs at 40 uM GlcN6P” value was less than 1e-05 s⁻¹. The “self-cleavage kobs at 160 uM GlcN6P” value with glucosamine-6-phosphate [3] was less than 1e-05 s⁻¹. Moreover, the “self-cleavage kobs at 640 uM GlcN6P” value with glucosamine-6-phosphate [4] is less than 1e-05 s⁻¹. Moreover, the “self-cleavage kobs at 2500 uM GlcN6P” value with glucosamine-6-phosphate [2] was less than 1e-05 s⁻¹. Also, in the series with glucosamine-6-phosphate [5], the “self-cleavage kobs at 10000 uM GlcN6P” value was less than 1e-05 s⁻¹.

As for AUAAAAGCGCCAGAACUACAGAAAUGUAGUUGGCGAGGAGGAGGUUUAUCGAAUUUUUGGCGGAUGCCUCCAAA, the “self-cleavage kobs at 40 uM GlcN6P” value in the series with glucosamine-6-phosphate [1] was less than 1e-05 s⁻¹. For the same variant, the “self-cleavage kobs at 2500 uM GlcN6P” value with glucosamine-6-phosphate [2] is less than 1e-05 s⁻¹. The “self-cleavage kobs at 10000 uM GlcN6P” value with glucosamine-6-phosphate [5] was less than 1e-05 s⁻¹.

As to AUAAAAGCGCCAGAACUACAGAAAUGUAGCUGACGAGGAGGAGGUUUCUCGAAUUUUCGGCGGAUGCCUCCAAA, the “self-cleavage kobs at 40 uM GlcN6P” value with glucosamine-6-phosphate [1] was less than 1e-05 s⁻¹. In addition, in the series with glucosamine-6-phosphate [3], the “self-cleavage kobs at 160 uM GlcN6P” value is less than 1e-05 s⁻¹. Moreover, the “self-cleavage kobs at 640 uM GlcN6P” value in the series with glucosamine-6-phosphate [4] was less than 1e-05 s⁻¹. Also, the “self-cleavage kobs at 2500 uM GlcN6P” value in the series with glucosamine-6-phosphate [2] was less than 1e-05 s⁻¹. Further, in the series with glucosamine-6-phosphate [5], the “self-cleavage kobs at 10000 uM GlcN6P” value is less than 1e-05 s⁻¹.

For the variant AUAAAAGCGCCAGAACUACAGAAAUGUAGUUGACGAGGAGGAGGUCUAUGGAAUUUUCGGCGGAUGCCUCCAAA, the “self-cleavage kobs at 40 uM GlcN6P” value with glucosamine-6-phosphate [1] was less than 1e-05 s⁻¹. Moreover, in the series with glucosamine-6-phosphate [4], the “self-cleavage kobs at 640 uM GlcN6P” value was less than 1e-05 s⁻¹.

Take AUAAAAGCGUCAGAACUACAGAAAUGUAGUUGACGAGGAAGAGGUUUCUCGAAUUUUCGGCGGAUGCCUCCAAA: in the series with glucosamine-6-phosphate [1], the “self-cleavage kobs at 40 uM GlcN6P” value was less than 1e-05 s⁻¹.

On to AUAAACGCGCCGGAACUACAGAAAUGUAGUUGACGAGGAGGAGGUUUAUCGAAUUUUCGGCGGAUGCCUCCAAA, for which, in the series with glucosamine-6-phosphate [1], the “self-cleavage kobs at 40 uM GlcN6P” value was less than 1e-05 s⁻¹. Also, the “self-cleavage kobs at 160 uM GlcN6P” value with glucosamine-6-phosphate [3] is less than 1e-05 s⁻¹. Further, the “self-cleavage kobs at 640 uM GlcN6P” value in the series with glucosamine-6-phosphate [4] was less than 1e-05 s⁻¹.

For AUAAAAGUGCCAGAACUACAGAAAUGUAGUUGACGAGGAGGAGGUUUAUCGAAUUUUCUGCGGAUGCCUCCAAA, the “self-cleavage kobs at 40 uM GlcN6P” value with glucosamine-6-phosphate [1] was less than 1e-05 s⁻¹. Besides, in the series with glucosamine-6-phosphate [3], the “self-cleavage kobs at 160 uM GlcN6P” value is less than 1e-05 s⁻¹. For the same variant, the “self-cleavage kobs at 640 uM GlcN6P” value with glucosamine-6-phosphate [4] was less than 1e-05 s⁻¹. In addition, in the series with glucosamine-6-phosphate [2], the “self-cleavage kobs at 2500 uM GlcN6P” value is less than 1e-05 s⁻¹. Further, in the series with glucosamine-6-phosphate [5], the “self-cleavage kobs at 10000 uM GlcN6P” value is less than 1e-05 s⁻¹.

For AUAAAAGCGCCAGAACUACAGAAAUGUAGUUGACGAGGGGGAGGUUUAUCGAAGUUUCGGCGGAUGCCUCCAAA, the “self-cleavage kobs at 40 uM GlcN6P” value in the series with glucosamine-6-phosphate [1] came out at 0.00177 ± 0.00036 s⁻¹. In the series with glucosamine-6-phosphate [3], the “self-cleavage kobs at 160 uM GlcN6P” value is 0.00227 ± 0.00056 s⁻¹. Besides, in the series with glucosamine-6-phosphate [4], the “self-cleavage kobs at 640 uM GlcN6P” value was determined as 0.00627 ± 0.0015 s⁻¹. In the series with glucosamine-6-phosphate [2], the “self-cleavage kobs at 2500 uM GlcN6P” value worked out at 0.0305 ± 0.013 s⁻¹.

AUAAAAGCGACAGCACUACAGAAAUGUAGUUGACGAGGAGGAGGCUUAUCGAAUUUUCGGCGGAUGCUUCCAAA: in the series with glucosamine-6-phosphate [1], the “self-cleavage kobs at 40 uM GlcN6P” value is less than 1e-05 s⁻¹. Moreover, the “self-cleavage kobs at 640 uM GlcN6P” value with glucosamine-6-phosphate [4] is less than 1e-05 s⁻¹. In addition, the “self-cleavage kobs at 2500 uM GlcN6P” value with glucosamine-6-phosphate [2] was less than 1e-05 s⁻¹. Besides, the “self-cleavage kobs at 10000 uM GlcN6P” value in the series with glucosamine-6-phosphate [5] is less than 1e-05 s⁻¹.
